Tests used:
Assay in all cases: ITC
[1] = biological target: Kj12A-^CDD peptide (C-terminal docking domain of Kj12A) (Xenorhabdus stockiae KJ12.1)
[2] = biological target: Kj12B-^CDD_(short) peptide G1566A (printed as G1565 replaced with alanine) (Xenorhabdus stockiae KJ12.1)
[3] = biological target: Kj12B-^CDD_(short) peptide L1564A (Xenorhabdus stockiae KJ12.1, L1564A (stands in the printed letters))
[4] = biological target: Kj12B-CDDshort R1565E peptide (Xenorhabdus stockiae KJ12.1, R1565E (stands in the printed letters))
[5] = biological target: T1, Kj12C-^NDD Q26K, E28A (modified Kj12C-^NDD) (Xenorhabdus stockiae KJ12.1)
T1 chain: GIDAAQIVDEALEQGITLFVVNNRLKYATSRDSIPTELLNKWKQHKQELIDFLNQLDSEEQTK

B1: Kj12A-^NDD (N-terminal docking domain of Kj12A) (domain or fragment)
chain: MKNAAQIVDEALNQGITLFVADNRLQYETSRDNIPEELLNEWKYYRQDLIDFLQQLDAKEETQ
With B1 the Kd [1] was over 100 µM.

B2: Kj12C-^NDD (N-terminal docking domain of Kj12C) (domain or fragment)
chain: GIDAAQIVDEALEQGITLFVVNNRLQYETSRDSIPTELLNKWKQHKQELIDFLNQLDSEEQTK
For B2, the Kd [2] was over 100 µM, the Kd [3] was over 100 µM and the Kd [4] was over 100 µM.

B3: Kj12B-^CDD peptide (C-terminal docking domain of Kj12B) (peptide)
peptide: LLKEKRKHFQAEQNSSQEYLRGEI
modifications: Limits taken from PDB 6EWU (isolated NDD). Residue 1 is Gly as in the entity, possibly a SUMO-cleavage/cloning replacement of the native Met. In vivo, the variant was in full-length Kj12C.
With B3 the Kd [5] was 80 µM.

B4: Kj12B-^NDD (N-terminal docking domain of Kj12B) (domain or fragment)
chain: MKNAAKIVNEALNQGITLFVSDNKLKYKTNRDSIPSELLEEWKQHKQELIDFLTQLESEEES
Binder B4 has a Kd [1] of over 100 µM.

From article PMC6195595 (2018)
